Six molecules from US20120041056A1, “NUCLEIC ACIDS SPECIFICALLY BINDING WITH HUMAN FACTOR VII/VIIA AND USES THEREOF” (LFB BIOTECHNOLOGIES, published 2012) can be followed below.

Data set [1] deals with Factor VII, rabbit plasma (hydroxyapatite eluate) (Oryctolagus cuniculus, UniProt P98139;P98139 P98139:40-191,P98139:192-444). The experiment in a line: pulldown; affinity chromatography; 0.2% step yield in eluate, rabbit FVII not retained. Conditions: tags: enriched from rabbit plasma; label: 5'-biotin. On the procedure: Gel equilibration: 0.050 M Tris-HCl, 0.010 M CaCl₂, 0.05 mM […], pH 7.5, elution: 0.050 M Tris-HCl, 0.010 M EDTA, pH 7.5, 36 μg are injected into the gel with a contact time of 10 minutes. The elution is carried out by injecting 2 ml of elution buffer.
The fractions are analyzed for their amidolytic activity by chromogenic assay using a Stago kit according to the supplier's recommendations (factor VIIa StatClot kit). The amidolytic activity is then converted to pg of FVII contained in said fraction.

Data set [2] has as its target Factor VII, recombinant rabbit (Oryctolagus cuniculus, UniProt P98139;P98139 P98139:40-191,P98139:192-444). The experiment in a line: SPR; no binding to rabbit FVII/VIIa. The following applies: label: 5'-biotin. On the procedure:
Each sample was injected sequentially onto the same chip (solid substrate) containing the Mapt2 aptamer immobilized by means of a biotin-streptavidin interaction. Controls are obtained by injecting blanks containing only running buffer. Signals corresponding to the background noise are obtained by injecting the same samples onto the reference cell containing the immobilized some nucleic acids or other, these signals are subtracted from the signals obtained on the active cell. All the injections were carried out with a flow rate of 30 μl/min for 60 sec; after the injection, running buffer was injected onto the chip at an identical flow rate, for 120 sec. Elution buffer (15 mM EDTA) was then injected for 30 sec with a flow rate of 30 μl/min in order to detach the human or rabbit FVII from the aptamer. The chip makes it possible to study, in real time, the formation and the breaking of the interactions between the FVII HP and the immobilized aptamer by means of surface plasmon resonance (SPR). Binding to the immobilized aptamer is reflected by an increase in the signal, in resonance units (RU), recorded by the apparatus (FIG. 8). These analyses are carried out with the RPS Biacore T100 apparatus (GE).
The modeling of the interactions recorded is carried out using the Biaevaluation software (GE).
A general note: In SPR one partner is held on a chip, and binding of the other changes the refractive index at the surface.

The target in data set [3] is T1, Factor VII/VIIa (FVII HP, plasma-derived) (Homo sapiens, UniProt P08709;P08709 P08709:61-212,P08709:213-466). The experiment in a line: SPR; aptamer immobilized; 50 mM Tris, 50 mM NaCl, 10 mM CaCl2, 4 mM MgCl2, pH 7.4; about 1:1 stoichiometry (Example 4). Conditions: tags: none; purified from human plasma (98-99% purity); label: 5'-biotin.
For data set [4], the target named is T1, Factor VII/VIIa (FVII HP, …). The experiment in a line: SPR; FVII immobilized; 10 mM CaCl2, 4 mM MgCl2, pH 7.4; eluted by 5 mM EDTA. The following applies: tags: none; purified from human plasma (98-99% purity). The method, then:
Each sample was injected sequentially onto the same chip (solid substrate) containing the immobilized human FVII. Controls were obtained by injecting blanks containing only running buffer. All the injections were carried out with a flow rate of 30 μl/min for 60 sec; after the injection, running buffer was injected onto the chip at an identical flow rate, for 120 sec. Elution buffer (5 mM EDTA) was then injected for 60 sec with a flow rate of 30 μl/min in order to detach the […]. The chip makes it possible to study, in real time, the formation and the breaking of the interactions between the immobilized human FVII and each of the aptamers Mapt2, Mapt3 and Mapt7 tested, by means of surface plasmon resonance (SPR). Binding to the immobilized human FVII is reflected by an increase in the signal, in resonance units (RU), recorded by the apparatus (FIG. 2). These analyses are carried out with the RPS Biacore T100 apparatus (GE). The modeling of the interactions recorded is carried out using the Biaevaluation software (GE).

Data set [5] has the same target. The experiment in a line: SPR; FVII immobilized, aptamer 1 uM; much higher affinity than other family 2 members; 10 mM CaCl2, 4 mM MgCl2, pH 7.5. The following applies: tags: none; purified from human plasma (98-99% purity). On the procedure: A series of 27 nucleic aptamers of the invention (purity: 99%), having a length ranging from 43 to 66 nucleotides depending on the aptamers, were diluted in running buffer (50 mM Tris, 50 mM NaCl, 10 mM CaCl₂, 4 mM MgCl₂, pH 7.5) so as to obtain three aptamer samples. Each aptamer tested was injected at a final concentration of 1 μM in the running buffer.
Each sample was injected sequentially onto the same chip (solid substrate) containing the immobilized human FVII. Controls are obtained by injecting blanks containing only running buffer. All the injections were carried out with a flow rate of 30 μl/min for 60 sec; after the injection, running buffer was injected onto the chip at an identical flow rate, for 120 sec. Elution buffer (5 mM EDTA) was then injected for 60 sec with a flow rate of 30 μl/min in order to detach the aptamer from the immobilized human FVII. The chip makes it possible to study, in real time, the formation and the breaking of the interactions between the immobilized human FVII and each of the aptamers tested, by means of surface plasmon resonance (SPR). Binding to the immobilized human FVII is reflected by an increase in the signal, in resonance units (RU), recorded by the apparatus (figure E1). These analyses are carried out with the RPS Biacore T100 apparatus (GE). The modeling of the interactions recorded is carried out using the Biaevaluation software (GE).

The target is the same in data set [6]. The experiment in a line: pulldown; affinity chromatography on streptavidin gel; CaCl2/MgCl2 buffer pH 7.5, eluted with 10 mM EDTA; Mapt2 core in low affinity group by SPR (Example 11). The following applies: tags: none; purified from human plasma (98-99% purity); label: 5'-biotin. The method, then: Gel equilibration: 0.050 M Tris-HCl, 0.010 M CaCl₂, 0.05 mM MgCl₂, pH 7.5, elution: 0.020 M Tris-HCl, 0.010 M EDTA, pH 7.5, 240 μg of human plasma FVII purified to 98% is injected with a flow rate of 0.5 ml/min in equilibration buffer.

B1: Mapt2 (biotin-PEG) (ssDNA)
DNA: GGGAGATAGCCACGACCTATGCAGCCAGCCGCAGTGTAAGTGAATGCAGACATGGTCTAAGTGTCCAGGCTGTGCGAAAGC
modifications: 5' spacer of 4 PEG(C18) and terminal biotin
Regarding B1, the binding result in data set [1] and in data set [2] was “no binding” each time. The Kd (usually the equilibrium constant for the complex coming apart) in data set [3] amounted to 99.9 nM.

B2: Mapt2 (ssDNA)
DNA: GGGAGATAGCCACGACCTATGCAGCCAGCCGCAGTGTAAGTGAATGCAGACATGGTCTAAGTGTCCAGGCTGTGCGAAAGC
With B2, in data set [4], the binding result was “binds”. The same measure, in the same setting: to AGTCTCCATGTTGCGAACCGAATGGTAAGGGGATCGTACACTAC (ssDNA) [Mapt7] belongs “binds”.

As for CCGCACGCTACGCGCATGAACCCGCGCACACGACTTGAAGTAGC (ssDNA) [Mapt2.2 core sequence], in data set [5], the binding result is listed as “binds”. As for CCGCACACCACGCGCATAATCCCGCGCACACGACTTGAAGTAGC (ssDNA, 5'-biotin without spacer) [Mapt-2 core (5'-biotin)], in data set [6], the binding result was “binds”.

For CCGGAGACGCGCAGCTCCTATACATGCGCACATGACTTGAAGTC (ssDNA) [Mapt3], the binding result in data set [4] is “binds”.
